How the values were obtained:
[1] = Assay for bound perhydrolase enzyme activity after treatment cycles (ABTS); type: binding
Method: The enzyme used in the following example was HC1121 (T. maritima C277S-HC263; SEQ ID NO: 288) and concentration used was 2500 μg/mL (E/H=10*). Enzyme solution was made in 5% TWEEN®-20 surfactant in 50 mM citrate buffer at pH 6. Approximately 0.8 mL of the enzyme solution was applied on ˜200 mg hair samples (4 test tresses) for 10 minutes. H2O2 and triacetin, formulations were made according to Example 24, in 20% LUBRIDERM® lotion in 50 mM citrate buffer at pH 6. After application of 400 μL each of the reagents, the treatment was allowed to continue for 20 minutes after which the hair was rinsed with tap-water and allowed to dry. Before proceeding with the next cycle the sample was subjected to the surfactant wash with 5% TWEEN®-20 in 50 mM citrate buffer at pH 6 and rinsed with tap-water.
After treatment for a defined number of cycles, 10 mg of hair was cut from each tress and placed into 2 mL microcentrifuge tubes (Eppendorf Protein LoBind; Eppendorf North America, Hauppauge, N.Y.). To each tube was added 480 uL of PAH buffer (50 mM potassium phosphate pH 7.2), 14 μL of 30% hydrogen peroxide (Sigma 3410), and 6 μL triacetin (Sigma-Aldrich, W200700). The perhydrolase reaction was allowed to proceed for 10 minutes at 25° C. The reaction was stopped by diluting aliquots 10×, 100× and 1000× with 10 mM phosphoric acid. For detection, 50 μL of 1 M acetic acid, 50 μL of 40 mg/mL potassium iodide, and 50 μL of 4 mM ABTS (2,2′-azino-bis(3-ethylbenzthiazoline-6-sulphonic acid; Sigma, St Louis, Mo.) were added to 50 μL of the above dilutions. Color was allowed to develop for 10 minutes and read in a spectrophotometer at 405 nm. Values from no-enzyme controls were subtracted to yield values attributable only to enzyme activity. A standard curve of OD 405 nm vs PAA concentration in ppm yielded a conversion factor of 8.75, such that an OD 405 nm of 1.0 corresponded to approximately 8.75 ppm PAA. This value was then multiplied by the appropriate dilution to arrive at the PAA concentration in the perhydrolase reaction.

[2] = One-step procedure on hair tresses, hair color loss ΔE
Method: The hair tresses in these examples were cut from the stock medium brown hair swatches that were custom made by International Hair Importers (Glendale, N.Y.). Each hair tress was glued at one end, and cut at 5 mm width and 4 cm long (excluding the glued portion), with 100+/−20 mg net hair weight. For each test condition, triplicates of hair tresses were used. In the one-step procedure, each hair tress was placed in a clean plastic weighing tray (VWR, Cat. #12577-053), then 1 mL of the perhydrolase HC1121 solution in a buffer was applied to the hair tress, and was rubbed into the hair tress with an applicator. Then calculated amount of triacetin and 30% H2O2 were applied onto each hair tress and rubbed into the hair tress which gave 200 mM triacetin and 100 mM H2O2. The hair tress sat in this reaction mixture for 30 min, before being washed thoroughly with tap water followed by paper towel dry. This completed a 30 min treatment cycle. The treatment cycle was repeated 16 times. Hair tress became lighter-colored and weakened during the treatment. After final rinse and air-drying, tensile strength tests as described in Example 25 were conducted on each hair tress to quantify hair weakening. In addition, L*, a*, b* color measurements were taken for each hair sample to quantify hair color loss, and L*, a*, b* color measurements were also taken for untreated hair as a reference for ΔE color difference calculations. ΔE was calculated in the standard way as ΔE=((L*−L*ref)^2+(a*−a*ref)^2+(b*−b*ref)^2)^0.5. […] At pH 6, when 30 μg/mL HC1121 was used which gave 0.3 μg/mg hair E/H ratio, the tensile strength of treated hair tress reduced to 1.9 N/mg hair, approaching 1.5 N/mg hair, the benchmark strength of hair treated with NAIR® cream for 5 min. At pH 7, when 30 μg/mL HC1121 was used, the tensile strength of treated hair tress was 0.3 N/mg hair, much less than the 1.5 N/mg hair benchmark. Therefore, proper concentration of enzyme at proper pH could weaken hair effectively. The measured hair color loss for treated hair tresses correlated well with the weakening of hair: the greater hair weakening, the greater hair color loss.
Hair tresses were treated using the same procedure as described in Example 40, except that SLES (sodium laurel ether sulfate, a common soap ingredient) wash step was added before tap water rinse step each cycle to imitate daily shower in real life, where 1 mL 1% SLES (“RHODAPEX ES 2K” by Rhodia Inc., Cranbury, N.J.) was transferred onto hair tress and the hair tress was rubbed with gloved hand on the palm for 30 seconds. The treatment parameters for this example (enzyme concentration, pH and buffer concentration, and treatment cycle time) were shown in Table 34. For the 24 hr treatment cycle, the hair tress sat in the mixture for 1 hr before being taken out to a dry dish. The hair tress sat dry for 23 hr before being washed with 1 mL 1% SLES followed by tap water rinse and paper towel dry. For the 30 min treatment cycles, the treatment cycle was repeated 16 times. […] After final rinse and air-drying for each hair tress, tensile strength test and color measurement as described in Example 40 were conducted on each hair tress to quantify hair weakening and hair color loss. […] Hair tensile strength ranged from 0.3 to 0.8 N/mg hair, much less than the 1.5 N/mg hair tensile strength benchmark. Stronger hair weakening occurred at higher buffer concentration and longer treatment time. […] Therefore, it was anticipated that even lower enzyme concentration could be used to reach benchmark hair weakening at slightly higher pH (pH 6.6 compared to pH 6 in Example 40), higher buffer concentration and longer treatment time.
Hair tresses were treated using the same procedure for 24 hr treatment cycles as described in Example 41 using 10 μg/mL HC1121 at pH 6.6 and substrates at various concentrations. […]

[3] = One-step procedure on hair tresses, tress tensile strength; settings: 10 μg/mL HC1121, pH 6.6, 50 mM phosphate, 8 cycles
[4] = 200 mM TA/200 mM H2O2, 24 hr/cycle

B1: C277S-HC263: C277S variant of Thermotoga maritima perhydrolase fused via a flexible linker to hair-binding domain HC263 (protein)
chain: MAFFDLPLEELKKYRPERYEEKDFDEFWEETLAESEKFPLDPVFERMESHLKTVEAYDVTFSGYRGQRIKGWLLVPKLEEEKLPCVVQYIGYNGGRGFPHDWLFWPSMGYICFVMDTRGQGSGWLKGDTPDYPEGPVDPQYPGFMTRGILDPRTYYYRRVFTDAVRAVEAAASFPQVDQERIVIAGGSQGGGIALAVSALSKKAKALLCDVPFLCHFRRAVQLVDTHPYAEITNFLKTHRDKEEIVFRTLSYFDGVNFAARAKIPALFSVGLMDNISPPSTVFAAYNYYAGPKEIRIYPYNNHEGGGSFQAVEQVKFLKKLFEKGGPGSGGAGSPGSAGGPGSPSAQSQLPDKHSGLHERAPQRYGPEPEPEPEPIPEPPKEAPVVIEKPKPKPKPKPKPPAHDHKNQKETHQRHAAGSGGGGSPHHHHHH
For B1, the “OD 405nm” value ([1]; 10 mg hair after 1 cycle) was 0.172, the PAA ([1]; 10 mg hair after 1 cycle, 10 min reaction) was 150.8 ppm and the “OD 405nm” value ([1]; 10 mg hair after 4 cycles) was 0.439. The PAA ([1]; 10 mg hair after 4 cycles) was 384.1 ppm, the “OD 405nm” value ([1]; 10 mg hair after 8 cycles) was 0.901 and the PAA ([1]; 10 mg hair after 8 cycles) was 788.4 ppm. The “OD 405nm” value ([1]; 10 mg hair after 12 cycles) was 1.287, the PAA ([1]; 10 mg hair after 12 cycles) was 1126.1 ppm and the “OD 405nm” value ([1]; 10 mg hair after 16 cycles) was 1.894. The PAA ([1]; 10 mg hair after 16 cycles) was 1657 ppm, the “Hair color loss avg ΔE” value ([2]; 10 μg/mL HC1121, pH 6.6, 50 mM phosphate, 200 mM TA/100 mM H2O2, 24 hr/cycle, 8 cycles) was 13.8 and the “Hair color loss avg ΔE” value ([2]; 10 μg/mL HC1121, pH 6.6, 50 mM phosphate, 200 mM TA/200 mM H2O2, 24 hr/cycle, 8 cycles) was 16.7. The “Hair color loss avg ΔE” value ([2]; 10 μg/mL HC1121, pH 6.6, 50 mM phosphate, 200 mM TA/300 mM H2O2, 24 hr/cycle, 8 cycles) was 20.1, the “Hair color loss avg ΔE” value ([2]; 10 μg/mL HC1121, pH 6.6, 50 mM phosphate, 200 mM TA/500 mM H2O2, 24 hr/cycle, 8 cycles) was 21.8 and the “Hair color loss avg ΔE” value ([2]; 10 μg/mL HC1121, pH 6.6, 50 mM phosphate, 500 mM TA/500 mM H2O2, 24 hr/cycle, 8 cycles) was 22.3. The “Hair color loss avg ΔE” value ([2]; one-step, 5 μg/mL enzyme, pH 6, 30 min × 16) was 5.2, the “Hair color loss avg ΔE” value ([2]; one-step, 15 μg/mL enzyme, pH 6, 30 min × 16) was 6.8 and the “Hair color loss avg ΔE” value ([2]; one-step, 30 μg/mL enzyme, pH 6, 30 min × 16) was 8.7. For the same molecule, the “Hair color loss avg ΔE” value ([2]; one-step, 30 μg/mL enzyme, pH 7, 30 min × 16) was 16.6, the “Hair color loss avg ΔE” value ([2]; one-step, pH 6.6, 50 mM buffer, 30 min/cycle X 16 cycles, SLES wash each cycle) was 17.7 and the “Hair color loss avg ΔE” value ([2]; one-step, pH 6.6, 50 mM buffer, 24 hr/cycle X 7 cycles, SLES wash each cycle) was 15.6. The “Hair color loss avg ΔE” value ([2]; one-step, pH 6.6, 100 mM buffer, 30 min/cycle X 16 cycles, SLES wash each cycle) was 24.2, the “Strength N/mg Hair, replicate1” value [3, 4] was 1.04 N/mg Hair and the “Strength N/mg Hair, replicate2” value [3, 4] was 0.57 N/mg Hair. For the same molecule, the “Strength N/mg Hair, replicate2” value ([3]; 500 mM TA/500 mM H2O2, 24 hr/cycle) was 0.55 N/mg Hair.

— US20130171217A1, “ENZYMATIC PERACID GENERATION FOR USE IN SKIN CARE PRODUCTS” (E I DU PONT DE NEMOURS AND COMPANY, priority 2010, published 2013)
